Assay results published in publication PMC9652321, “Structural basis of human SNAPc recognizing proximal sequence element of snRNA promoter”.

How the values were obtained:
mSNAPc#2 WT = target: T1, mSNAPc#2 WT (Homo sapiens, UniProt Q5SXM2;Q92966;Q16533;O75971 1-505;1-411;1-268;1-98); assay: SPR; protein immobilized; EMSA: 100 mM KCl, 25 mM HEPES-K pH 7.6, 12.5 mM MgCl2, 10 uM ZnCl2, 0.1 mM EDTA, 10% glycerol, 3 mM DTT, 0.5 mM PMSF, 50 nM DNA, RT 30 min; SPR: 100 mM KCl, 12.5 mM MgCl2, 10 uM ZnCl2, 0.1 mM EDTA, 0.05% P20, 25 C; conditions: protein: recombinant; tags: FLAG N-term SNAP190; 6xHis N-term SNAP43; copies: 1;1;1;1
T1 sequence 1: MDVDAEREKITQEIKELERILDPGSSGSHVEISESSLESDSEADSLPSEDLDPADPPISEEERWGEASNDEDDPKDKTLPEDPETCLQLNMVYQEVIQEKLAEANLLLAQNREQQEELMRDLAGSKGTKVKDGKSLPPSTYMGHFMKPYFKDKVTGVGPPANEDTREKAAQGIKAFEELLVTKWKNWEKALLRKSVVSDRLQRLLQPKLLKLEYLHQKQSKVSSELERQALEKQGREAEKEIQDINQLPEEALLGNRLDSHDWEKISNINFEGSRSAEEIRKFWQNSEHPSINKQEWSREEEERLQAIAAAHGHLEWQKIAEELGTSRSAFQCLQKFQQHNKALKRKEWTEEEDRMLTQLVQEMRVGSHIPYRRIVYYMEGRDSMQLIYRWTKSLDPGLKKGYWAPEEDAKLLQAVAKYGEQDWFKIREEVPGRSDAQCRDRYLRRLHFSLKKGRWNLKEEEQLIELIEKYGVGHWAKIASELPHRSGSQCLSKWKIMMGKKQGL
T1 sequence 2: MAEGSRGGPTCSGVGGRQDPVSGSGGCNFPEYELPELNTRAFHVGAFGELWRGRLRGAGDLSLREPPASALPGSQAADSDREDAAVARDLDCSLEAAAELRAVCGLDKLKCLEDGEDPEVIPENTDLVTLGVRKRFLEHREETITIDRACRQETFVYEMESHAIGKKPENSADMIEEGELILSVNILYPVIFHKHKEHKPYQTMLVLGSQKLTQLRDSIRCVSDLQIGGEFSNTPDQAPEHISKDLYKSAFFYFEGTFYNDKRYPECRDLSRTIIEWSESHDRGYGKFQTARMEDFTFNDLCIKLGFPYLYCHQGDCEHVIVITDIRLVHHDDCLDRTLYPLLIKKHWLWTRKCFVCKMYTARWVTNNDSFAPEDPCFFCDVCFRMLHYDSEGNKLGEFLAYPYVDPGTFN
T1 sequence 3: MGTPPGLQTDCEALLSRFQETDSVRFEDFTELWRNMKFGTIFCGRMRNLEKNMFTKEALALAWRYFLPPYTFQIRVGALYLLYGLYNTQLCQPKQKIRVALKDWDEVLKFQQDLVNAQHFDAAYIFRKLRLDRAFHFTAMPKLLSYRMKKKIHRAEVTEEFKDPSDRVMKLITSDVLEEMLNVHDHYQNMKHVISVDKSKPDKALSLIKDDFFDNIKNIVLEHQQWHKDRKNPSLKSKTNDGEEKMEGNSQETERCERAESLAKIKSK
T1 sequence 4: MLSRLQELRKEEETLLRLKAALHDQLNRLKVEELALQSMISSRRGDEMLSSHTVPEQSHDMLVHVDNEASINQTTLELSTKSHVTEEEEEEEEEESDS

mSNAPc#2 SNAP50-R151A = target: T2, mSNAPc#2 SNAP50-R151A (Homo sapiens, UniProt Q5SXM2;Q92966;Q16533;O75971 1-505;1-411;1-268;1-98, R151A); assay: SPR; EMSA: 100 mM KCl, 25 mM HEPES-K pH 7.6, 12.5 mM MgCl2, 10 uM ZnCl2, 0.1 mM EDTA, 10% glycerol, 3 mM DTT, 0.5 mM PMSF, 50 nM DNA, RT 30 min; SPR: 100 mM KCl, 12.5 mM MgCl2, 10 uM ZnCl2, 0.1 mM EDTA, 0.05% P20, 25 C; conditions: protein: recombinant; tags: as P1; copies: 1;1;1;1
T2 sequence 1: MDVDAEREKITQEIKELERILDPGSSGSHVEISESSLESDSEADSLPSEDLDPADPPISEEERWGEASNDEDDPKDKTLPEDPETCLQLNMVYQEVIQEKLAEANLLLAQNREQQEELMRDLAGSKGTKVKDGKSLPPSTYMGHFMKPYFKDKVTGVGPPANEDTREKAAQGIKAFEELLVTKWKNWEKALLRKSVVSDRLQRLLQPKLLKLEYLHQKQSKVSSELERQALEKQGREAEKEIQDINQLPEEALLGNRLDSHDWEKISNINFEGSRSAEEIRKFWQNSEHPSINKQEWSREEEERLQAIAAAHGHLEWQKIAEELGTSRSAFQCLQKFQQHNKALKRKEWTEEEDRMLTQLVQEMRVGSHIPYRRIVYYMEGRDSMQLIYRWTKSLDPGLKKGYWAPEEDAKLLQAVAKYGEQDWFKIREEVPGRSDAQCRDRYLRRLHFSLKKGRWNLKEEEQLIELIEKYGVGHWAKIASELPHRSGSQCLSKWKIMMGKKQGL
T2 sequence 2: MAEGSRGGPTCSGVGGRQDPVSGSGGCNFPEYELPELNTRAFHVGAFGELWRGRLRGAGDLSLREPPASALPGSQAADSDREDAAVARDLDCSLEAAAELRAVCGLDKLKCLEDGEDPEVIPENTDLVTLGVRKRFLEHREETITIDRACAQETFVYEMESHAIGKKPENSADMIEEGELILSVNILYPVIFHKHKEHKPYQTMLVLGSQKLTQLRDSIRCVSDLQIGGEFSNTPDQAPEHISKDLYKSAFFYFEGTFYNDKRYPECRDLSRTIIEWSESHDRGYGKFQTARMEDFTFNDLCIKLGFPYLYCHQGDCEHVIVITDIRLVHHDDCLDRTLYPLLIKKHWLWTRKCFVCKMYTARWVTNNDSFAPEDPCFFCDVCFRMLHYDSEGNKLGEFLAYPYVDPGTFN
T2 sequence 3: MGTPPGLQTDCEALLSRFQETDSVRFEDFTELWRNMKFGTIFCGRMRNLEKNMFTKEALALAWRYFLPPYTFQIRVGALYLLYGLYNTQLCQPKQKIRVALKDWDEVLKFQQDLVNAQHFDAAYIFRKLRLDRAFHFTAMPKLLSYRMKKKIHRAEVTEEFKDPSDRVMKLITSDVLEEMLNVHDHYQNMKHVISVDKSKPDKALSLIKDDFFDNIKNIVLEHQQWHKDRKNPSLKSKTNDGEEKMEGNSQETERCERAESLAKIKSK
T2 sequence 4: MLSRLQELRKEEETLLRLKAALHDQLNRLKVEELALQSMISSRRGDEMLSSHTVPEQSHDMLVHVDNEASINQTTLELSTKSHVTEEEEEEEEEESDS

mSNAPc#2 SNAP50-W350A = target: T3, mSNAPc#2 SNAP50-W350A (Homo sapiens, UniProt Q5SXM2;Q92966;Q16533;O75971 1-505;1-411;1-268;1-98, W350A); assay: as above; conditions: protein: recombinant; tags: as P1; copies: 1;1;1;1
T3 sequence 1: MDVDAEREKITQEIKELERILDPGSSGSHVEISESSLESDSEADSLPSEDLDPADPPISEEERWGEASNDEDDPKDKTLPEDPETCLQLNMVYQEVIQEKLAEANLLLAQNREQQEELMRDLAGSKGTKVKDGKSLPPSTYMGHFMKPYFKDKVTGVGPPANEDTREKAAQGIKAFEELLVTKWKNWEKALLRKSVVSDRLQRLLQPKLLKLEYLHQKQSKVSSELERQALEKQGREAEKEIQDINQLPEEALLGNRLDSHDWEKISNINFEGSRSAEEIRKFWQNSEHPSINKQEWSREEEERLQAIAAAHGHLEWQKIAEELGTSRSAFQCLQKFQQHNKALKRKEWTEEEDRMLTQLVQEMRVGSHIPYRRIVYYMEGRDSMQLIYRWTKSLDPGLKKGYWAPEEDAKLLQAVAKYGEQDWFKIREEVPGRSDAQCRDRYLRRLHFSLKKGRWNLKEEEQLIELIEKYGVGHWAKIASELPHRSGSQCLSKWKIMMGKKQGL
T3 sequence 2: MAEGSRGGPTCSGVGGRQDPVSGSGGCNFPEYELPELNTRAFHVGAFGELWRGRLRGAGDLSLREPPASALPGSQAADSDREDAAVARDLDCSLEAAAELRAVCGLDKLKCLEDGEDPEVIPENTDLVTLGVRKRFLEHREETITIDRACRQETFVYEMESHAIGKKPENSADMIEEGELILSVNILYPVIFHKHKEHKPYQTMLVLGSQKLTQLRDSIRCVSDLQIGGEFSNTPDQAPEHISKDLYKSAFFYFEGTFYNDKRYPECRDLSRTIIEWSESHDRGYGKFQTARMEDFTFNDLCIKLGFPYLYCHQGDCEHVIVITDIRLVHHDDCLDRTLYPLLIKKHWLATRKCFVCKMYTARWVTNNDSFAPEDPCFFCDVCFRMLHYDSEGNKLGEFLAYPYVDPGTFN
T3 sequence 3: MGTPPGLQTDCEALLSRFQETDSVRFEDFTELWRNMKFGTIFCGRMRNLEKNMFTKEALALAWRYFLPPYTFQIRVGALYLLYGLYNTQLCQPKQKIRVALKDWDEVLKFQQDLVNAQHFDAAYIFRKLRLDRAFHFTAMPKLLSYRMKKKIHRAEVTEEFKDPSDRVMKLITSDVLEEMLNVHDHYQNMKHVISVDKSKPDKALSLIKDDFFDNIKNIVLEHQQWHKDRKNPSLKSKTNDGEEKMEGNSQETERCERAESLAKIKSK
T3 sequence 4: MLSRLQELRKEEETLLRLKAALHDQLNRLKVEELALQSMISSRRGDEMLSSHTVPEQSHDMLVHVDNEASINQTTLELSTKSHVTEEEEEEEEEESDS

B1: 25 bp hU6-1 PSE (SPR) (dsDNA)
DNA 1: TGCTTACCGTAACTTGAAAGTATTT
DNA 2: AAATACTTTCAAGTTACGGTAAGCA
Question: For B1, which Kd (mSNAPc#2 WT) is on record?
Answer: 289 nM

Question: What about the Kd (mSNAPc#2 SNAP50-R151A) of the same binder?
Answer: 1150 nM

Question: And the Kd (mSNAPc#2 SNAP50-W350A)?
Answer: 887 nM
